Source: publication PMC4372403, “Glycosylation of Phenolic Compounds by the Site-Mutated β-Galactosidase from Lactobacillus bulgaricus L3” (PLoS ONE, 2015)
Positions count from the first letter of the chain named. Numbers in names are those of the source.

B1: BgaL3 (β-galactosidase from Lactobacillus bulgaricus L3) (Lactobacillus delbrueckii subsp. bulgaricus) (protein)
chain: MSNKLVKEKRVDQADLAWLTDPEVYEVNTIPPHSDHESFQSQEELEEGKSSLVQSLDGDWLIDYAENGQGPVNFYAEDFDDSNFKSVKVPGNLELQGFGQPQYVNVQYPWDGSEEIFPPQIPSKNPLASYVRYFDLDEAFWDKEVSLKFDGAATAIYVWLNGHFVGYGEDSFTPSEFMVTKFLKKENNRLAVALYKYSSASWLEDQDFWRMSGLFRSVTLQAKPRLHLEDLKLTASLTDNYQKGKLEVEANIAYRLPNASFKLEVRDSEGDLVAEKLGPIRSEQLEFTLADLPVAAWSAEKPNLYQVRLYLYQAGSLLEVSRQEVGFRNFELKDGIMYLNGQRIVFKGANRHEFDSKLGRAITEEDMIWDIKTMKRSNINAVRCSHYPNQSLFYRLCDKYGLYVIDEANLESHGTWEKVGGHEDPSFNVPGDDQHWLGASLSRVKNMMARDKNHASILIWSLGNESYAGTVFAQMADYVRKADPTRVQHYEGVTHNRKFDDATQIESRMYVPAKVIEEYLTNKPAKPFISVEYAHAMGNSVGDLAAYTALEKYPHYQGGFIWDWIDQGLEKDGHLLYGGDFDDRPTDYEFCGNGLVFADRTESPKLANVKALYANLKLEVKDGQLFLKNDNLFTNSSSYYFLTSLLVDGKLTYQSRPLTFGLEPGESGTFALPWPEVADEKGEVVYRVTAHLKEDLPWADEGFTVAEAEEVAQKLPEFKPEGRPDLVDSDYNLGLKGNNFQILFSKVKGWPVSLKYAGREYLKRLPEFTFWRALTDNDRGAGYGYDLARWENAGKYARLKDISCEVKEDSVLVKTAFTLPVALKGDLTVTYEVDGRGKIAVTADFPGAEEAGLLPAFGLNLALPKELTDYRYYGLGPNESYPDRLEGNYLGIYQGAVKKNFSPYLRPQETGNRSKVRWYQLFDEKGGLEFTANGADLNLSALPYSAAQIEAADHAFELTNNYTWVRALSAQMGVGGDDSWGQKVHPEFCLDAQKARQLRLVIQPLLLK
B2: BgaL3 (β-galactosidase from Lactobacillus bulgaricus L3) (Lactobacillus delbrueckii subsp. bulgaricus; W980F) (protein)
chain: B1 chain with W980F

Substrate: O=[N+]([O-])c1ccccc1O[C@@H]1O[C@H](CO)[C@H](O)[C@H](O)[C@H]1O
Assay: purified protein
Assay type: biochemical, Lactobacillus delbrueckii
Conditions: 37°C, 10 min, oNPGal 0.5 to 50 mM, hydrolysis

Protein	Km [mM]	Vmax [µmol/min/mg]	kcat [s⁻¹]	kcat/Km [M⁻¹ s⁻¹]
B1	1.38	6530	12500	9.06e+06
B2	6.40	640	1240	194000
